Values quoted from earlier work as cited in patent publication US20140179681A1, “METHODS AND COMPOSITIONS OF TARGETED DRUG DEVELOPMENT” (priority 2010, published 2014).

Target: T1, EGF binding site (Rattus norvegicus, UniProt G3V6K6)
T1 construct: Receptor source was rat liver membranes; tissue NovaScreen BioSciences; host or cells: rat liver membranes
Conditions: radioligand of the inhibitor assays; rat liver membranes; read-out: KD (binding affinity)

- Kd: 1.04 nM
B1: [^125I]EGF: "The radioligand was [^125I]EGF ([…]) at a final ligand concentration of 0.36 nM" (protein, UniProt P01133 23-1207, looked up)
Pro-epidermal growth factor: PQHWSCPEGTLAGNGNSTCVGPAPFLIFSHGNSIFRIDTEGTNYEQLVVDAGVSVIMDFHYNEKRIYWVDLERQLLQRVFLNGSRQERVCNIEKNVSGMAINWINEEVIWSNQQEGIITVTDMKGNNSHILLSALKYPANVAVDPVERFIFWSSEVAGSLYRADLDGVGVKALLETSEKITAVSLDVLDKRLFWIQYNREGSNSLICSCDYDGGSVHISKHPTQHNLFAMSLFGDRIFYSTWKMKTIWIANKHTGKDMVRINLHSSFVPLGELKVVHPLAQPKAEDDTWEPEQKLCKLRKGNCSSTVCGQDLQSHLCMCAEGYALSRDRKYCEDVNECAFWNHGCTLGCKNTPGSYYCTCPVGFVLLPDGKRCHQLVSCPRNVSECSHDCVLTSEGPLCFCPEGSVLERDGKTCSGCSSPDNGGCSQLCVPLSPVSWECDCFPGYDLQLDEKSCAASGPQPFLLFANSQDIRHMHFDGTDYGTLLSQQMGMVYALDHDPVENKIYFAHTALKWIERANMDGSQRERLIEEGVDVPEGLAVDWIGRRFYWTDRGKSLIGRSDLNGKRSKIITKENISQPRGIAVHPMAKRLFWTDTGINPRIESSSLQGLGRLVIASSDLIWPSGITIDFLTDKLYWCDAKQSVIEMANLDGSKRRRLTQNDVGHPFAVAVFEDYVWFSDWAMPSVMRVNKRTGKDRVRLQGSMLKPSSLVVVHPLAKPGADPCLYQNGGCEHICKKRLGTAWCSCREGFMKASDGKTCLALDGHQLLAGGEVDLKNQVTPLDILSKTRVSEDNITESQHMLVAEIMVSDQDDCAPVGCSMYARCISEGEDATCQCLKGFAGDGKLCSDIDECEMGVPVCPPASSKCINTEGGYVCRCSEGYQGDGIHCLDIDECQLGEHSCGENASCTNTEGGYTCMCAGRLSEPGLICPDSTPPPHLREDDHHYSVRNSDSECPLSHDGYCLHDGVCMYIEALDKYACNCVVGYIGERCQYRDLKWWELRHAGHGQQQKVIVVAVCVVVLVMLLLLSLWGAHYYRTQKLLSKNPKNPYEESSRDVRSRRPADTEDGMSSCPQPWFVVIKEHQDLKNGGQPVAGEDGQAADGSMQPTSWRQEPQLCGMGTEQGCWIPVSSDKGSCPQVMERSFHMPSYGTQTLEGGVEKPHSLLSANPLWQQRALDPPHQMELTQ
modifications: Pro-epidermal growth factor 125I label
